The chains are these.
B1: CIgG4B1A2(G4S)3 (Fc fusion)
chain 1: GPPCPPCPAPEFLGGPSVFLFPPKPKDTLMISRTPEVTCVVVDVSQEDPEVQFNWYVDGVEVHNAKTKPREEQFNSTYRVVSVLTVLHQDWLNGKEYKCKVSNKGLPSSIEKTISKAKGQPREPQVYTLPPCQEEMTKNQVSLWCLVKGFYPSDIAVEWESNGQPENNYKTTPPVLDSDGSFFLYSRLTVDKSRWQEGNVFSCSVMHEALHNHYTQKSLSLSLGKGGGGSGGGGSGGGGSQVQLQESGGGLVQTGGSLRLSCAVHGRTFSNTGMGWFRQAPGNERQFVAIISPSGTSTYYADSVKGRFTISRDPAKNTVYLQMNSLKMDDTAVYYCAASYGSNWSTLRHQRRNEYDAWGQGTQVAVS
chain 2: GPPCPPCPAPEFLGGPSVFLFPPKPKDTLMISRTPEVTCVVVDVSQEDPEVQFNWYVDGVEVHNAKTKPREEQFNSTYRVVSVLTVLHQDWLNGKEYKCKVSNKGLPSSIEKTISKAKGQPREPQVCTLPPSQEEMTKNQVSLSCAVKGFYPSDIAVEWESNGQPENNYKTTPPVLDSDGSFFLVSRLTVDKSRWQEGNVFSCSVMHEALHNHYTQKSLSLSLGKGGGGSGGGGSGGGGSEVQLLESGGGLVQPGGSLRLSCAASGFRFGNYDMAWVRQAPGKRYEWVSSIDTGGDITHYADSVKGRFTISRDNAKNTLYLQMNSLRPEDTAEYWCATDEEYALGPNEFDYYGQGTLVTVS
B2: NIgG4B1A2(G4S)3 (Fc fusion)
chain 1: QVQLQESGGGLVQTGGSLRLSCAVHGRTFSNTGMGWFRQAPGNERQFVAIISPSGTSTYYADSVKGRFTISRDPAKNTVYLQMNSLKMDDTAVYYCAASYGSNWSTLRHQRRNEYDAWGQGTQVAVSGGGGSGGGGSGGGGSGPPCPPCPAPEFLGGPSVFLFPPKPKDTLMISRTPEVTCVVVDVSQEDPEVQFNWYVDGVEVHNAKTKPREEQFNSTYRVVSVLTVLHQDWLNGKEYKCKVSNKGLPSSIEKTISKAKGQPREPQVYTLPPCQEEMTKNQVSLWCLVKGFYPSDIAVEWESNGQPENNYKTTPPVLDSDGSFFLYSRLTVDKSRWQEGNVFSCSVMHEALHNHYTQKSLSLSLGK
chain 2: EVQLLESGGGLVQPGGSLRLSCAASGFRFGNYDMAWVRQAPGKRYEWVSSIDTGGDITHYADSVKGRFTISRDNAKNTLYLQMNSLRPEDTAEYWCATDEEYALGPNEFDYYGQGTLVTVSGGGGSGGGGSGGGGSGPPCPPCPAPEFLGGPSVFLFPPKPKDTLMISRTPEVTCVVVDVSQEDPEVQFNWYVDGVEVHNAKTKPREEQFNSTYRVVSVLTVLHQDWLNGKEYKCKVSNKGLPSSIEKTISKAKGQPREPQVCTLPPSQEEMTKNQVSLSCAVKGFYPSDIAVEWESNGQPENNYKTTPPVLDSDGSFFLVSRLTVDKSRWQEGNVFSCSVMHEALHNHYTQKSLSLSLGK
B3: NIgG4B2A1(G4S)1 (Fc fusion)
chain 1: QVQLVESGGGLVQAGGSLRLSCAVFGSTFSNNVADWYRQAPGKQRELVARISASGATREYGDSVKGRFTISRDDAKNTMYLQMNNLKPEDTAVYRCHKIEWEDLSRKDYWGQGTQVTVSGGGGSGPPCPPCPAPEFLGGPSVFLFPPKPKDTLMISRTPEVTCVVVDVSQEDPEVQFNWYVDGVEVHNAKTKPREEQFNSTYRVVSVLTVLHQDWLNGKEYKCKVSNKGLPSSIEKTISKAKGQPREPQVYTLPPCQEEMTKNQVSLWCLVKGFYPSDIAVEWESNGQPENNYKTTPPVLDSDGSFFLYSRLTVDKSRWQEGNVFSCSVMHEALHNHYTQKSLSLSLGK
chain 2: EVQLLESGGGLVQPGGSLRLSCAASGFTFGNYDMAWVRQAPGKRPEWVSSIDTGGDITHYADSVKGRFTISRDNAKNTLYLQMNSLRPEDTAVYWCATDEEYALGPNEFDYYGQGTLVTVSSGGGGSGPPCPPCPAPEFLGGPSVFLFPPKPKDTLMISRTPEVTCVVVDVSQEDPEVQFNWYVDGVEVHNAKTKPREEQFNSTYRVVSVLTVLHQDWLNGKEYKCKVSNKGLPSSIEKTISKAKGQPREPQVCTLPPSQEEMTKNQVSLSCAVKGFYPSDIAVEWESNGQPENNYKTTPPVLDSDGSFFLVSRLTVDKSRWQEGNVFSCSVMHEALHNHYTQKSLSLSLGK
B4: CIgG4B1A2(G4S)2 (Fc fusion)
chain 1: GPPCPPCPAPEFLGGPSVFLFPPKPKDTLMISRTPEVTCVVVDVSQEDPEVQFNWYVDGVEVHNAKTKPREEQFNSTYRVVSVLTVLHQDWLNGKEYKCKVSNKGLPSSIEKTISKAKGQPREPQVYTLPPCQEEMTKNQVSLWCLVKGFYPSDIAVEWESNGQPENNYKTTPPVLDSDGSFFLYSRLTVDKSRWQEGNVFSCSVMHEALHNHYTQKSLSLSLGKGGGGSGGGGSQVQLQESGGGLVQTGGSLRLSCAVHGRTFSNTGMGWFRQAPGNERQFVAIISPSGTSTYYADSVKGRFTISRDPAKNTVYLQMNSLKMDDTAVYYCAASYGSNWSTLRHQRRNEYDAWGQGTQVAVS
chain 2: GPPCPPCPAPEFLGGPSVFLFPPKPKDTLMISRTPEVTCVVVDVSQEDPEVQFNWYVDGVEVHNAKTKPREEQFNSTYRVVSVLTVLHQDWLNGKEYKCKVSNKGLPSSIEKTISKAKGQPREPQVCTLPPSQEEMTKNQVSLSCAVKGFYPSDIAVEWESNGQPENNYKTTPPVLDSDGSFFLVSRLTVDKSRWQEGNVFSCSVMHEALHNHYTQKSLSLSLGKGGGGSGGGGSEVQLLESGGGLVQPGGSLRLSCAASGFRFGNYDMAWVRQAPGKRYEWVSSIDTGGDITHYADSVKGRFTISRDNAKNTLYLQMNSLRPEDTAEYWCATDEEYALGPNEFDYYGQGTLVTVS
B5: NIgG4B2A1(RS) (Fc fusion)
chain 1: QVQLVESGGGLVQAGGSLRLSCAVFGSTFSNNVADWYRQAPGKQRELVARISASGATREYGDSVKGRFTISRDDAKNTMYLQMNNLKPEDTAVYRCHKIEWEDLSRKDYWGQGTQVTVSRSGPPCPPCPAPEFLGGPSVFLFPPKPKDTLMISRTPEVTCVVVDVSQEDPEVQFNWYVDGVEVHNAKTKPREEQFNSTYRVVSVLTVLHQDWLNGKEYKCKVSNKGLPSSIEKTISKAKGQPREPQVYTLPPCQEEMTKNQVSLWCLVKGFYPSDIAVEWESNGQPENNYKTTPPVLDSDGSFFLYSRLTVDKSRWQEGNVFSCSVMHEALHNHYTQKSLSLSLGK
chain 2: EVQLLESGGGLVQPGGSLRLSCAASGFTFGNYDMAWVRQAPGKRPEWVSSIDTGGDITHYADSVKGRFTISRDNAKNTLYLQMNSLRPEDTAVYWCATDEEYALGPNEFDYYGQGTLVTVSSRSGPPCPPCPAPEFLGGPSVFLFPPKPKDTLMISRTPEVTCVVVDVSQEDPEVQFNWYVDGVEVHNAKTKPREEQFNSTYRVVSVLTVLHQDWLNGKEYKCKVSNKGLPSSIEKTISKAKGQPREPQVCTLPPSQEEMTKNQVSLSCAVKGFYPSDIAVEWESNGQPENNYKTTPPVLDSDGSFFLVSRLTVDKSRWQEGNVFSCSVMHEALHNHYTQKSLSLSLGK
B6: CIgG4B1A2(G4S)1 (Fc fusion)
chain 1: GPPCPPCPAPEFLGGPSVFLFPPKPKDTLMISRTPEVTCVVVDVSQEDPEVQFNWYVDGVEVHNAKTKPREEQFNSTYRVVSVLTVLHQDWLNGKEYKCKVSNKGLPSSIEKTISKAKGQPREPQVYTLPPCQEEMTKNQVSLWCLVKGFYPSDIAVEWESNGQPENNYKTTPPVLDSDGSFFLYSRLTVDKSRWQEGNVFSCSVMHEALHNHYTQKSLSLSLGKGGGGSQVQLQESGGGLVQTGGSLRLSCAVHGRTFSNTGMGWFRQAPGNERQFVAIISPSGTSTYYADSVKGRFTISRDPAKNTVYLQMNSLKMDDTAVYYCAASYGSNWSTLRHQRRNEYDAWGQGTQVAVS
chain 2: GPPCPPCPAPEFLGGPSVFLFPPKPKDTLMISRTPEVTCVVVDVSQEDPEVQFNWYVDGVEVHNAKTKPREEQFNSTYRVVSVLTVLHQDWLNGKEYKCKVSNKGLPSSIEKTISKAKGQPREPQVCTLPPSQEEMTKNQVSLSCAVKGFYPSDIAVEWESNGQPENNYKTTPPVLDSDGSFFLVSRLTVDKSRWQEGNVFSCSVMHEALHNHYTQKSLSLSLGKGGGGSEVQLLESGGGLVQPGGSLRLSCAASGFRFGNYDMAWVRQAPGKRYEWVSSIDTGGDITHYADSVKGRFTISRDNAKNTLYLQMNSLRPEDTAEYWCATDEEYALGPNEFDYYGQGTLVTVS
B7: NIgG4B2A1(G4S)2 (Fc fusion)
chain 1: QVQLVESGGGLVQAGGSLRLSCAVFGSTFSNNVADWYRQAPGKQRELVARISASGATREYGDSVKGRFTISRDDAKNTMYLQMNNLKPEDTAVYRCHKIEWEDLSRKDYWGQGTQVTVSGGGGSGGGGSGPPCPPCPAPEFLGGPSVFLFPPKPKDTLMISRTPEVTCVVVDVSQEDPEVQFNWYVDGVEVHNAKTKPREEQFNSTYRVVSVLTVLHQDWLNGKEYKCKVSNKGLPSSIEKTISKAKGQPREPQVYTLPPCQEEMTKNQVSLWCLVKGFYPSDIAVEWESNGQPENNYKTTPPVLDSDGSFFLYSRLTVDKSRWQEGNVFSCSVMHEALHNHYTQKSLSLSLGK
chain 2: EVQLLESGGGLVQPGGSLRLSCAASGFTFGNYDMAWVRQAPGKRPEWVSSIDTGGDITHYADSVKGRFTISRDNAKNTLYLQMNSLRPEDTAVYWCATDEEYALGPNEFDYYGQGTLVTVSSGGGGSGGGGSGPPCPPCPAPEFLGGPSVFLFPPKPKDTLMISRTPEVTCVVVDVSQEDPEVQFNWYVDGVEVHNAKTKPREEQFNSTYRVVSVLTVLHQDWLNGKEYKCKVSNKGLPSSIEKTISKAKGQPREPQVCTLPPSQEEMTKNQVSLSCAVKGFYPSDIAVEWESNGQPENNYKTTPPVLDSDGSFFLVSRLTVDKSRWQEGNVFSCSVMHEALHNHYTQKSLSLSLGK
B8: CIgG4B1A2(RS) (Fc fusion)
chain 1: GPPCPPCPAPEFLGGPSVFLFPPKPKDTLMISRTPEVTCVVVDVSQEDPEVQFNWYVDGVEVHNAKTKPREEQFNSTYRVVSVLTVLHQDWLNGKEYKCKVSNKGLPSSIEKTISKAKGQPREPQVYTLPPCQEEMTKNQVSLWCLVKGFYPSDIAVEWESNGQPENNYKTTPPVLDSDGSFFLYSRLTVDKSRWQEGNVFSCSVMHEALHNHYTQKSLSLSLGKRSQVQLQESGGGLVQTGGSLRLSCAVHGRTFSNTGMGWFRQAPGNERQFVAIISPSGTSTYYADSVKGRFTISRDPAKNTVYLQMNSLKMDDTAVYYCAASYGSNWSTLRHQRRNEYDAWGQGTQVAVS
chain 2: GPPCPPCPAPEFLGGPSVFLFPPKPKDTLMISRTPEVTCVVVDVSQEDPEVQFNWYVDGVEVHNAKTKPREEQFNSTYRVVSVLTVLHQDWLNGKEYKCKVSNKGLPSSIEKTISKAKGQPREPQVCTLPPSQEEMTKNQVSLSCAVKGFYPSDIAVEWESNGQPENNYKTTPPVLDSDGSFFLVSRLTVDKSRWQEGNVFSCSVMHEALHNHYTQKSLSLSLGKRSEVQLLESGGGLVQPGGSLRLSCAASGFRFGNYDMAWVRQAPGKRYEWVSSIDTGGDITHYADSVKGRFTISRDNAKNTLYLQMNSLRPEDTAEYWCATDEEYALGPNEFDYYGQGTLVTVS

As a reminder, the EC50 is the concentration needed to bring the measured effect to its halfway point.

In this test the target is T1, recombinant human IgE (human, UniProt P01854-1 1-428).
T1 construct: made in-house (ALK); preloaded on immobilised FcεRIα in the displacement ELISA
T1 sequence (P01854 other isoform, or with tags, fused parts or gaps): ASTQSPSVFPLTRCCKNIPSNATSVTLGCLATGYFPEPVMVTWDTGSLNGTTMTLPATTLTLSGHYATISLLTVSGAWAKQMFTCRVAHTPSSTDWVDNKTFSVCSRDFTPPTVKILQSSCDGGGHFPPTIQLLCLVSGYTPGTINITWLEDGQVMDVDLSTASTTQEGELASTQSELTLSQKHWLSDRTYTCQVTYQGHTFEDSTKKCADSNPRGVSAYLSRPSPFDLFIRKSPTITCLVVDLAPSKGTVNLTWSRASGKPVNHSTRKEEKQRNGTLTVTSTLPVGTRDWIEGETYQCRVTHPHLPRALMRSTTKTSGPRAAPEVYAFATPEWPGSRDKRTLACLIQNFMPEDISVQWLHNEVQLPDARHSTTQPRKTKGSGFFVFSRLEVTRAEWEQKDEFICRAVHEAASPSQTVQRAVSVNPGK
Kind of test: IgE-FcεRIα displacement ELISA. In short, it runs like this: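 sdAbs at pM–μM were incubated 1 h on preformed complexes of 13 ng/ml recombinant human IgE with avi-tag-biotinylated human FcεRIα captured on streptavidin.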
On the technique in general: ELISA stands for enzyme-linked immunosorbent assay.
For the molecule B1, the EC50 was determined as 2.5 nM and the Max effect was over 95%.

Turning to B2, the Max effect is over 95%. The same measure, in the same setting: then B3, with over 95%. For B4, the EC50 turned out to be 2.7 nM and the Max effect was over 95%. On to B5, for which the Max effect was over 95%. For the molecule B6, the concentration for a half-maximal effect (EC50) was determined as 3 nM and the Max effect was over 95%. Regarding B7, the Max effect was over 95%.

On to B8, for which the EC50 came to 5 nM and the Max effect was over 95%.

The values are drawn from patent publication US20250171562A1 (ALK ABELL, published 2025).
